Patent US20150283262A1 (AstraZeneca / MedImmune, published 2015)
Where two headings read alike, the source gives them in different places.

How the values were obtained:
Experiment in all cases: cell-based or functional assay
[1] = target: T1, CD19 on CD19 +ve cell lines (Daudi, Ramos, WSU-DLCL2) (human, UniProt P15391 20-556)
T1 sequence (looked up): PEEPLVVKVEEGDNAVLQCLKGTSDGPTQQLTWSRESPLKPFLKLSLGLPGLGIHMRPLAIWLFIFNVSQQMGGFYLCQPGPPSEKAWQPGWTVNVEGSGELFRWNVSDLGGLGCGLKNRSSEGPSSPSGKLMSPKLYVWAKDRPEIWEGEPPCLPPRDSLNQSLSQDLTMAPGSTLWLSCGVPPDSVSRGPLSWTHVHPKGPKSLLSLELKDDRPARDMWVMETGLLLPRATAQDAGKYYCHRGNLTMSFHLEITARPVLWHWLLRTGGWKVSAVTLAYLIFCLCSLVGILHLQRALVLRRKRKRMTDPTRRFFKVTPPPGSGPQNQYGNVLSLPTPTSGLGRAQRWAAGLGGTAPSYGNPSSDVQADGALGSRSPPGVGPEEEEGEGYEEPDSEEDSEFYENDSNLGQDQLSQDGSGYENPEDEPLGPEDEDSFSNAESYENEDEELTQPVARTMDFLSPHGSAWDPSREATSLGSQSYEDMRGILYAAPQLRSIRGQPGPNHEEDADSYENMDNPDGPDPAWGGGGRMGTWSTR

[2] = target: T1, CD19 on CD19 +ve cell lines (Daudi, …); remark: listed apart in the source
[3] = target: T1, CD19 on CD19 +ve cell lines (Daudi, …); remark: listed apart in the source

B1: RB4v1.2-A (anti-CD19 antibody RB4v1.2 conjugated to PBD drug linker A) (antibody, DAR 2.2, V domains shown)
VH: QVQLVQPGAEVVKPGASVKLSCKTSGYTFTSNWMHWVKQAPGQGLEWIGEIDPSDSYTNYNQNFQGKAKLTVDKSTSTAYMEVSSLRSDDTAVYYCARGSNPYYYAMDYWGQGTSVTVS
VL: EIVLTQSPAIMSASPGERVTMTCSASSGVNYMHWYQQKPGTSPRRWIYDTSKLASGVPARFSGSGSGTSYSLTISSMEPEDAATYYCHQRGSYTFGGGTKLEIK
modifications: PBD dimer drug linker A attached to cysteine thiols after TCEP reduction; positions not given; DAR 2.2 for the whole ADC
[1]
  EC50 (µg/mL), in vitro cytotoxicity, Alamar Blue cell survival, Daudi cells: 0.00112 µg/mL
  EC50 (µg/mL), in vitro cytotoxicity, Alamar Blue cell survival, Ramos cells: 0.00102 µg/mL
  EC50 (µg/mL), in vitro cytotoxicity, Alamar Blue cell survival, WSU-DLCL2 cells: 0.117 µg/mL

B2: RB4v1.2-E (anti-CD19 antibody RB4v1.2 conjugated to PBD drug linker E) (antibody, DAR 1.93, V domains shown)
VH: QVQLVQPGAEVVKPGASVKLSCKTSGYTFTSNWMHWVKQAPGQGLEWIGEIDPSDSYTNYNQNFQGKAKLTVDKSTSTAYMEVSSLRSDDTAVYYCARGSNPYYYAMDYWGQGTSVTVS
VL: EIVLTQSPAIMSASPGERVTMTCSASSGVNYMHWYQQKPGTSPRRWIYDTSKLASGVPARFSGSGSGTSYSLTISSMEPEDAATYYCHQRGSYTFGGGTKLEIK
modifications: PBD dimer drug linker E attached to cysteine thiols after TCEP reduction; positions not given; DAR 1.93 for the whole ADC
[2]
  EC50 (µg/mL), in vitro cytotoxicity, Alamar Blue cell survival, Daudi cells: 0.00122 µg/mL
  EC50 (µg/mL), in vitro cytotoxicity, Alamar Blue cell survival, Ramos cells: 0.00147 µg/mL
  EC50 (µg/mL), in vitro cytotoxicity, Alamar Blue cell survival, WSU-DLCL2 cells: 0.031 µg/mL

B3: RB4v1.2-D (anti-CD19 antibody RB4v1.2 conjugated to PBD drug linker D) (antibody, DAR 2.18, V domains shown)
VH: QVQLVQPGAEVVKPGASVKLSCKTSGYTFTSNWMHWVKQAPGQGLEWIGEIDPSDSYTNYNQNFQGKAKLTVDKSTSTAYMEVSSLRSDDTAVYYCARGSNPYYYAMDYWGQGTSVTVS
VL: EIVLTQSPAIMSASPGERVTMTCSASSGVNYMHWYQQKPGTSPRRWIYDTSKLASGVPARFSGSGSGTSYSLTISSMEPEDAATYYCHQRGSYTFGGGTKLEIK
modifications: PBD dimer drug linker D (iodoacetamide) attached to cysteine thiols after TCEP reduction; positions not given; DAR 2.18 for the whole ADC
[3]
  EC50 (µg/mL), in vitro cytotoxicity, Alamar Blue cell survival, Daudi cells: 0.00102 µg/mL
  EC50 (µg/mL), in vitro cytotoxicity, Alamar Blue cell survival, Ramos cells: 0.000798 µg/mL
  EC50 (µg/mL), in vitro cytotoxicity, Alamar Blue cell survival, WSU-DLCL2 cells: 0.0219 µg/mL
